The source of these data is the nanobody polyreactivity screen of Harvey et al. (2022).

A short description of the data set: yeast display, Sf9 membrane polyspecificity reagent, FACS + sequencing; frameworks hold sequencing errors. Put shortly:
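Nanobodies came from a synthetic yeast display library in Saccharomyces cerevisiae BJ5465, induced with galactose for 36–48 hours and stained for 1 hour at 4 °C with 10% biotinylated, detergent-solubilized Sf9 membrane reagent. Cells were enriched on streptavidin microbeads and then FACS-sorted, with low and high (top ~1%) gates set on anti-HA fluorescence for expression and streptavidin fluorescence for reagent binding. Each polyreactivity label reflects the gate a clone came from. Genes were amplified by colony PCR, sequenced by MiSeq 2 × 250 and filtered by CDR length.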
As to “QVQLVESGGGLVQAGGSLRLSCAASGRIFGINAMGSYRQAPGKERELVAAINWSGGSTYYADSVKGRFTISRDNAKNTVYLQMNSLKPEDTAVYYCAAQKYKRVGYWGQGTQVTVSS”, the “polyreactivity (PSR sort gate)” value is on record as “high polyreactivity”. Then “QVQLVESGGGLVQAGGSLRLSCAASGRIFGINVMGWYRQAPGKERELVAAISYRTGSTYYADSVKGRFTISRDNAKNTVYLQMNSLKPEDTAVYYCAAQRRIRTAWYDYWGQGTQVTVSS”, with “high polyreactivity”; and “QVQLVESGGGLVQAGGSLRLSCAASGRIFGIYAMGWYRQAPGKERELVAAINSGDSTYADSVKGRFTISRDNAKNTVYLQMNSLKPEDTAVYYCAAEESTSSWSINDYWGQGTQVNVSS”, with “low polyreactivity”; and “QVQLVESGGGLVQAGGSLRLSCAASGRIFGIYAMGWYRQAPGKERELVAAITWNGGSTYYADSVKGRFTNSRDNAKNTVYLQMNSLKPEDTAVYYCAARTADYSYGRRVVTRYGYWGQGTQVTVSS”, with “high polyreactivity”. Then “QVQLVESGGGLVQAGGSLRLSCAASGRIFGIYAMGWYRQAPGKERELVASITDGTITNYADSVKGRFTISRDNAKNTVYLQMNSLIPEDTAVYYCAAGTQAHAYVVRPIEMDYWGQGTQVTVSS”, with “low polyreactivity”. For the sequence “QVQLVESGGGLVQAGGSLRLSCAASGRIFGLNAMGRYRQAPGKERELVAAISERDGSTYYADSVKGRFTISRDNAKNTVYLQMNSLKPEDTAVYYCAAEKPVHYVRGVHYDYWGQGTQVTVSS”, the “polyreactivity (PSR sort gate)” value is “low polyreactivity”. With “QVQLVESGGGLVQAGGSLRLSCAASGRIFGLNAMGWYRQAPGKERELVAAIDRSGASTYYADSVKGRFTISRDNAKNTVYLQMNSLKPEDTAVYYCAAESYLSGEEYDYWGQGTQVTVSS”, the “polyreactivity (PSR sort gate)” value was “high polyreactivity”. The same measure for “QVQLVESGGGLVQAGGSLRLSCAASGRIFGLNTMGWYRQAPGKERELVAAITSSAGSTYYADSVKGRFTISRDNAKNTVYLQMNSLKPEDTAVYYCAARVSYLGSFTSQRYYYWGQGTQVTVSS”: “high polyreactivity”; for “QVQLVESGGGLVQAGGSLRLSCAASGRIFGLYAMGWYRQAPGKARELVAAISTRGGSTRYADSVKGRFTISRDTAKNTVYLQMNSLKPEDTAVYYCAKQPKPPPVTGYDYWGQGTQVTVSS”: “high polyreactivity”.

Regarding “QVQLVESGGGLVQAGGSLRLSCAASGRIFGLYAMGWYRQAPGKERELVAAIRGRGGRTSYADSVKGRFTISRDNAKNTVYLQMNSLKPEDTAVYYCNAELYPWPGVVRYNYWGHGTQVTVSS”, the “polyreactivity (PSR sort gate)” value is listed as “high polyreactivity”. Then “QVQLVESGGGLVQAGGSLRLSCAASGRIFGLYAMGWYRQAPGKERELVAAISRRGGTTYYADSVKGRFTISRDNAKNTVYLQMNSLKPEDTAVYYCAAATVYLSWYYWGQGTQVTVSS”, with “high polyreactivity”; and “QVQLVESGGGLVQAGGSLRLSCAASGRIFGLYAMGWYRQAPGKERELVAAISWSGGRTYYADSVKGRFTISRDNAKNNVYLQMNSLKPEDTAVYYCAARSYYRSQYGFDYWGQGTQVTVSS”, with “high polyreactivity”; and “QVQLVESGGGLVQAGGSLRLSCAASGRIFGLYAMGWYRQAPGKERELVAAITSSTGSTYYADSVKGRFTISRDNAKNTVYLQMNSLKPEDTAVYYCAARRYGRNWHYDYWGQGTQVTVSS”, with “high polyreactivity”. “QVQLVESGGGLVQAGGSLRLSCAASGRIFGLYARGWSRQAPGKERELVAAYADSVKGRFTISRENAKNTVYLQMNSLKPEDTAVYYCAKGPLYAGYSIDLRDFNYWGQGTQVTVSS”: the “polyreactivity (PSR sort gate)” value was “low polyreactivity”. Take “QVQLVESGGGLVQAGGSLRLSCAASGRIFGNNAMGWYRQAPGKERELVAAITSGGSTNYADSVKGRFTISRDNAKNTVYLQMNSLKPEDTAVYYCAKRWVYKYRHYDYWGQGTQVTVSS”: the “polyreactivity (PSR sort gate)” value is recorded as “low polyreactivity”.

For the sequence “QVQLVESGGGLVQAGGSLRLSCAASGRIFGNYAMGWYRQAPGKERELVAAITSGARTYYADSVKGRFTISRDNAKNTVYLQMNSLKPEDTAVYYCAAYHKSYSNRYDYWGQGTHVTVSS”, the “polyreactivity (PSR sort gate)” value is given as “high polyreactivity”.

For the sequence “QVQLVESGGGLVQAGGSLRLSCAASGRIFGPNAMGWYRQAPGKERELVASISYSGGSTYYADSVKGRFTISRDNAKNTVYLQMNSLKPEDTAVYYCAKGGYWRGYNYWGQGTQVTVSS”, the “polyreactivity (PSR sort gate)” value is on record as “low polyreactivity”. In the case of “QVQLVESGGGLVQAGGSLRLSCAASGRIFGPYAMGWYRPAPGKERELVAVISLSGGRTYYADSVKGRFTISRDNAKNTVYLQMNSLKPEDTAVYYCAAARIYVGRRFDFWGQGTQVTVSS”, the “polyreactivity (PSR sort gate)” value is recorded as “high polyreactivity”. The same measure for “QVQLVESGGGLVQAGGSLRLSCAASGRIFGPYAMGWYRQAPGKERELVAAISWSGGSTYYADSVKGRFTISRDNAKNTVYLQMNSLKPEDTAVYYCAARERRVYGDRFYKLDYWGQGTQVTVSS”: “high polyreactivity”; for “QVQLVESGGGLVQAGGSLRLSCAASGRIFGPYTMGWYRQAPGKERELVAAISWSGGSTYYADSVKGRFTISRDNAKNTVYLQMNSLKPEDTAVYYCNADHPFPQYEGGSWGQGTQVTVSS”: “low polyreactivity”.

Turning to “QVQLVESGGGLVQAGGSLRLSCAASGRIFGPYTMGWYRQAPGKERELVARISRRGGSTYYADSVKGRFTISRDNAKNTVYLQMNSLKPEDTAVYYCARSQAVYDGWFAKFGYWGQGTQVTVSS”, the “polyreactivity (PSR sort gate)” value was “low polyreactivity”.

“QVQLVESGGGLVQAGGSLRLSCAASGRIFGRNAMGWYRQAPGKERELVAAISSSGGRTYYADSVKGRFTISRDNAKNTVYLQMNSLKPEDTAVYYCAAVGSLYYYRYDYWGQGTQVTVSS”: the “polyreactivity (PSR sort gate)” value is “high polyreactivity”. Then “QVQLVESGGGLVQAGGSLRLSCAASGRIFGRNTMGWYRQAPGKERELVAVISFRGGSTYADSVKGRFTISRDNAKNTVYLQMNSLKPEDTAVYYCARTAYSTRPYRFDYWGQGTQVTVSS”, with “high polyreactivity”; and “QVQLVESGGGLVQAGGSLRLSCAASGRIFGRYAMGWYRQAPGKERELVAAISRRGGTTYYADSVKGRFTISRDNAKNTVYLQMNSLKPEDTAVYSSNADTYGYGFDYWGQGTQVTVSS”, with “high polyreactivity”; and “QVQLVESGGGLVQAGGSLRLSCAASGRIFGRYAMGWYRQAPGKERELVASIRSRGGSTYYADSVKGRFTISRDNAKNTVYLQMNSLIPEDTAVYYCAKTVTSGYYYAGRYDYWGQGTQVTVSS”, with “high polyreactivity”. As to “QVQLVESGGGLVQAGGSLRLSCAASGRIFGRYAMGWYRQAPGKERELVASISTGGGGTYYADSVKGRFTISRDNAKNTVYLQMNSLKPEDTAVYYCAKAWRGFWTKYDYWGQGTQVTVSS”, the “polyreactivity (PSR sort gate)” value is listed as “low polyreactivity”. The same measure for “QVQLVESGGGLVQAGGSLRLSCAASGRIFGRYAMGWYRQAPGNERELVAAISSTGGRTYYADSVKGRFTISRDNAKNTVYLQMTSLKPEDTAVYYCAATYVHYPSMGYDYWGQGTQVTVSS”: “high polyreactivity”.

With “QVQLVESGGGLVQAGGSLRLSCAASGRIFGRYTMGWYRQAPGKERELVAAISARGGSPNYADSVKGRFTISRDNAKNTVYLQLNSLIPEDTAVYYCNTVRVHGFPIDRIYDYWGQVTQVTVSS”, the “polyreactivity (PSR sort gate)” value was “high polyreactivity”. Then “QVQLVESGGGLVQAGGSLRLSCAASGRIFGSYAMGSYRQAPGKERELVAAINWRGGSTFYADSVKGRFTISRDNAKNTVYLQMNSLKPEDTAVYYCARRGYRQSGDYWGQGTQVTVSS”, with “low polyreactivity”; and “QVQLVESGGGLVQAGGSLRLSCAASGRIFGSYAMGWYIQAPGTERELVAAINRRGGSTFYADSVKGRFTISRDNAKNSVYLQMNSLKPEDTAVYYCARRGYRQSGDYWGQGTQVTLSS”, with “low polyreactivity”; and “QVQLVESGGGLVQAGGSLRLSCAASGRIFGSYAMGWYRQAPGKERELVAAINWRGGSTFYADSVKGRFTISRDNAKNTVYLQMNSLKPEDTAVYYCARRGYRQSGDYWGQGTEVTVSS”, with “low polyreactivity”. Then “QVQLVESGGGLVQAGGSLRLSCAASGRIFGSYAMGWYRQAPGKERELVAAISGGGSTNYADSVKGRFTISRDNAKNTVYLQMNSLKPEDSAVYYCTADRGFAVIVLYGYWGQGTQVTVSS”, with “low polyreactivity”.

On to “QVQLVESGGGLVQAGGSLRLSCAASGRIFGSYAMGWYRQAPGKERELVAAISRSGVSTYYADSVKGRFTISRDNAKNTVYLQMNSLKPEDTAVYYCAAYYRYASDYWGQGTQVTVSS”, for which the “polyreactivity (PSR sort gate)” value is given as “low polyreactivity”.

Regarding “QVQLVESGGGLVQAGGSLRLSCAASGRIFGSYAMGWYRQAPGKERELVAAISWRGTSTYYADSVKGRFTISRDNAKNTVYLQMNSLIPEDTAVYYCAARGLWPYDYWGQGSQVTVSS”, the “polyreactivity (PSR sort gate)” value is recorded as “low polyreactivity”. The same measure for “QVQLVESGGGLVQAGGSLRLSCAASGRIFGSYAMGWYRQAPGKERELVATIRRSGGRTYYADSVKGRFTISRDNAKNTVYLQKTSLKPADTAVYYCAKDEWGNIRHERDYWGQGTQVTVSS”: “low polyreactivity”; for “QVQLVESGGGLVQAGGSLRLSCAASGRIFGSYAMGWYRQAPGKERELVATITFGGGSTYYAESEKGRFTISRDNAKNTVYLQMNSLKPEDTAVYYCAADSGYLGIYGDEYSWGQGTQVTVSS”: “low polyreactivity”; for “QVQLVESGGGLVQAGGSLRLSCAASGRIFGSYTMGWYRQAPGKERELVAAISWSGGNTYYADSVKGRFTISRDNAKNTVYLLMNSQKPEDTAVYYCNALYYRPPKWYGYWGQGTQVTVSS”: “high polyreactivity”.

For the sequence “QVQLVESGGGLVQAGGSLRLSCAASGRIFGTNAMGWYIQAPGKERELVADITSGGSTNYADSVKGRFTISRDNAKNTVYLQMNSLKPEDTAVYYCAADVIGDLRWYRDEYWGQGTQVTVSS”, the “polyreactivity (PSR sort gate)” value is recorded as “low polyreactivity”. “QVQLVESGGGLVQAGGSLRLSCAASGRIFGTNAMGWYRQAHGKERELVADITSGGSTNYADSVKGRFTISRDNAKNTVYLQMNSLKPEDTAVSYCAADVIGDLPWYRDEYWGQGTQVTVSS”: the “polyreactivity (PSR sort gate)” value was “low polyreactivity”. Then “QVQLVESGGGLVQAGGSLRLSCAASGRIFGTYAMGWYRQAPGKERELVASISYSDGSTYADSVKGRFTISRDNAKNTVYLQMNSLKPEDTAVYYCAADVYYYAQSEDGYWGQGTQVTVSS”, with “low polyreactivity”; and “QVQLVESGGGLVQAGGSLRLSCAASGRIFGVNAMGLYRQAPGKERELVAVISSGGSTYYADSVKGRFTISRDNAKNTVYLQMNSLKPEDTAVYYCNAVVGRWFPYNLSDYWGQGTQVTVSS”, with “low polyreactivity”.
